# Test results as given in patent US20250043017A1 (Regeneron, published 2025).
# B1: mAb25898 (antibody, V domains shown)
# VH: QVQLVESGGDVVQPGRSLRLSCTASGFTFSSFGMHWVRQAPGKGLEWVTFLSYDGSYKYYADSVKGRFTISRDNSKNTLYLQMNSLRAEDTAIFYCARDWLDYWGQGTLVTVSS
# VL: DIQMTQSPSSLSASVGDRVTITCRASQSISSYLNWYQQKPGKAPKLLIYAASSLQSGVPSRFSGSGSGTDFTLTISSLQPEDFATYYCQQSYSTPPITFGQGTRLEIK
# notes: bivalent parental anti-4-1BB antibody of REGN6189; also called 25898P2; parental bivalent 4-1BB antibody
# B2: mAb25894 (antibody, V domains shown)
# VH: EVQLVESGGGLVQPGGSLRLSCVASGFTFSSYEMNWVRQAPGKGLEWVSYISNSGTTIYYAGSVKGRFTISRDNAKKSLYLHMNSLRAEDTAVYYCAREGTIFGTVHYYFALDVWGQGTTVTVSS
# VL: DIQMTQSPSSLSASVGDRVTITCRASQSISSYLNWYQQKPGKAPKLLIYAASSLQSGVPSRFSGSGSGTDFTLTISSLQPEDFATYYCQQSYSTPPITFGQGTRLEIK
# notes: bivalent parental anti-4-1BB antibody of REGN6188; also called 25894P2; parental bivalent 4-1BB antibody
# B3: mAb25907 (antibody, V domains shown)
# VH: EVQLVESGGGLVQPGGSLRLSCEASGFTFSSYEMNWVRQAPGKGLEWISHISSSGSSIYYADSVQGRFTISRDKAKNSLYLQMNSLRAEDTAVYYCTREGFEYGSSSGLKYYYYGLDVWGQGTTVTVSS
# VL: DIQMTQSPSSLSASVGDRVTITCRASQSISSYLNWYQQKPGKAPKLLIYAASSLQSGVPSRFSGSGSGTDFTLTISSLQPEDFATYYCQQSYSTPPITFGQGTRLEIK
# notes: bivalent parental anti-4-1BB antibody of REGN6190; also called 25907P2
# What was measured:
# human 4-1BB on cells [1] = molecular target: T1, human 4-1BB on cells (human, UniProt Q07011 24-255); experiment: cell-based or functional assay
# T1 sequence (Q07011 24-255): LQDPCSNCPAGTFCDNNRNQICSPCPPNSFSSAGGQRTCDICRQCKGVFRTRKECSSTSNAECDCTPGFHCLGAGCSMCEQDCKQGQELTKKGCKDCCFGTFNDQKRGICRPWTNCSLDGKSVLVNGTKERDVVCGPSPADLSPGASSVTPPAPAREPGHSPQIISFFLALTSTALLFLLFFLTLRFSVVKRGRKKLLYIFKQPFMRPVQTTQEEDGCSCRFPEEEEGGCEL
# human 4-1BB on cells [2] = molecular target: T1, human 4-1BB on cells; experiment: cell-based or functional assay; remark: listed apart in the source
# human 4-1BB on cells [3] = molecular target: T1, human 4-1BB on cells; experiment: flow cytometry, Jurkat/NFkB-Luc/h41BB cells
# Experimental: Binding was detected by using a labeled secondary antibody and measuring fluorescence on a flow cytometer.
# Assay set up: OVCAR-3+/−PD-L1 cells were lifted with trypsin, washed and resuspended in stain buffer (2% FBS in PBS). OVCAR-3 and Jurkat/NFkB-Luc/h41BB cells were counted and added to wells at 200,000 cells/well. Cells, in wells of 96-well round bottom plates, were pelleted by centrifugation and resuspended in 150 ul stain buffer (PBS containing 2% FBS). Plates were once again centrifuged and subsequently 100 ul of stain buffer alone or stain buffer containing antibody, titrated from 200 nM to 12 pM in a 9-point 1:4 dose titration were added to cells. Cells and antibodies were incubated for 30 min on ice and then washed in stain buffer. Cells were resuspended in 2 μg/ml allophycocyanin (APC) conjugated goat-anti human secondary antibody. A secondary antibody alone control was included. Cells and secondary were incubated for 30 min on ice and then washed in stain buffer. After a subsequent wash with PBS (containing no FBS), cells were resuspended in viability dye (reconstituted in DMSO according to the manufacturer's protocol and diluted 1:1000 in PBS) and incubated for 20 min on ice. They were then washed with stain buffer and resuspended in 2% PFA for 30 min at 4 C. After washing they were filtered and analyzed by flow cytometry. EC₅₀ values of the antibodies were determined from a 4 parameter logistic equation over a 9-point dose response curve (including secondary only control) using GraphPad Prism software.
# [4] = molecular target: T2, human 4-1BB expressed with a C-terminal myc-myc-hexahistidine tag (h4-1BB.mmH) (human); experiment: blocking ELISA, 0.25 nM h4-1BB-mmh binding to coated 6His-Flag-h4-1BBL
# T2 construct: also called hCD137 (4-1BB) mmH
# T2 sequence (chain, as listed by the source limits assumed): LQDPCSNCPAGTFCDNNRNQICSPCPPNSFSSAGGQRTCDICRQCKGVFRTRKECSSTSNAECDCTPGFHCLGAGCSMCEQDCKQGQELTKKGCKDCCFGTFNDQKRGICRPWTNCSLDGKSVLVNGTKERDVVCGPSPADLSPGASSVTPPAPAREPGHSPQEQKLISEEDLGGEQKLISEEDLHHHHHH
# Experimental: The 4-1BB blocking assay was performed similarly to the PD-L1 blocking assay. 6His-Flag-h4-1BBL protein ([…] in PBS) was coated onto a 96-well microtiter plate overnight at 4 °C. […] The plates were developed using TMB substrate solution (BD Biosciences) and the absorbance at 450 nm was measured on a SpectraMax I3x plate reader.
# Binding data were analyzed using a sigmoidal (four-parameter logistic) dose-response model with GraphPad Prism™ software. […] The percent blocking of tested antibodies at the highest tested concentration of 100 nM was calculated based on the formula shown below: […]
# [5] = molecular target: T2, human 4-1BB expressed with a C-terminal …; experiment: SPR Biacore, 25 C, antibody captured via anti-hFc, h4-1BB.mmH as analyte
# Experimental: The CM5 Biacore sensor surface was derivatized by amine coupling with a monoclonal mouse anti-human Fc antibody. All Biacore binding studies were performed in a buffer composed of 0.01M HEPES pH 7.4, 0.15M NaCl, 3 mM EDTA, 0.05% v/v Surfactant P20 (HBS-EP running buffer). […] Antibody-reagent association was monitored for 5 minutes while dissociation in HBS-EP running buffer was monitored for 10 minutes. At the end of each cycle, the antibody capture surface was regenerated using a 10 sec injection of 20 mM phosphoric acid. All binding kinetics experiments were performed at 25° C.
# Data analysis: The specific SPR-Biacore sensorgrams were obtained by a double referencing procedure. The double referencing was performed by first subtracting the signal of each injection over a reference surface (anti-hFc or anti-mFc) from the signal over the experimental surface (anti-hFc-captured anti-PD-L1×4-1BB antibodies) thereby removing contributions from refractive index changes. In addition, running buffer injections were performed to allow subtraction of the signal changes resulting from the dissociation of captured antibodies or antigens from the coupled anti-hFc or anti-mFc surface. Kinetic association (kₐ) and dissociation (kd) rate constants were determined by fitting the real-time sensorgrams to a 1:1 binding model using Scrubber v2.0c curve fitting software. Binding dissociation equilibrium constants (KD) and dissociative half-lives (t½) were calculated from the kinetic rate constants as: […]
Binder,"NFkB-luciferase MAX (RLU), Jurkat/NFkB-Luc/h41BB + HEK293/hCD20/hPSMA (human 4-1BB on cells [1]) [RLU]","NFkB-luciferase MAX (RLU), Jurkat/NFkB-Luc/h41BB + HEK293/hCD20/hPSMA/hPD-L1 (human 4-1BB on cells [1]) [RLU]","IL2 release MAX, human CD3+ T cells + HEK293/hCD20/hPSMA + CD20xCD3 (human 4-1BB on cells [2]) [pg/mL]","IL2 release MAX, human CD3+ T cells + HEK293/hCD20/hPSMA, no CD20xCD3 (human 4-1BB on cells [2]) [pg/mL]","IL2 release MAX, human CD3+ T cells + HEK293/hCD20/hPSMA/hPD-L1 + CD20xCD3 (human 4-1BB on cells [2]) [pg/mL]","IL2 release MAX, human CD3+ T cells + HEK293/hCD20/hPSMA/hPD-L1, no CD20xCD3 (human 4-1BB on cells [2]) [pg/mL]",EC50 (human 4-1BB on cells [3]) [nM],Fold change (max MFI over secondary antibody alone) (human 4-1BB on cells [3]) [fold],Max [gMFI] (human 4-1BB on cells [3]),% Blocking at 100 nM mAb [4] [%],270 nM h4-1BB-mmH Bind (RU) [5] [RU],Kd [5] [nM],koff [5] [s⁻¹],kon [5] [M⁻¹ s⁻¹],t½ [5] [s],"NFkB-luciferase EC50, Jurkat/NFkB-Luc/h41BB + HEK293/hCD20/hPSMA (human 4-1BB on cells [1]) [nM]"
B1,19000,19000,8.4,3.3,5.1,3.3,0.0406,53.8,120000,70,63.8,94.5,0.0282,298000,24,–
B2,34300,29800,9.6,1,7.8,1,–,44.7,100000,61,35.1,170,0.0902,530000,6,14.8
B3,18500,18100,9.3,1.6,4.6,1.6,0.00508,60.5,140000,87,67.5,34.2,0.0196,572000,36,–
